Reference: patent US20250277199, “NOVEL CRISPR-CAS NUCLEASES FROM METAGENOMES” (Brain Biotech AG, published 2025)

Molecular target: T1, BMC14 (uncultured bacterium (metagenome))
T1 chain: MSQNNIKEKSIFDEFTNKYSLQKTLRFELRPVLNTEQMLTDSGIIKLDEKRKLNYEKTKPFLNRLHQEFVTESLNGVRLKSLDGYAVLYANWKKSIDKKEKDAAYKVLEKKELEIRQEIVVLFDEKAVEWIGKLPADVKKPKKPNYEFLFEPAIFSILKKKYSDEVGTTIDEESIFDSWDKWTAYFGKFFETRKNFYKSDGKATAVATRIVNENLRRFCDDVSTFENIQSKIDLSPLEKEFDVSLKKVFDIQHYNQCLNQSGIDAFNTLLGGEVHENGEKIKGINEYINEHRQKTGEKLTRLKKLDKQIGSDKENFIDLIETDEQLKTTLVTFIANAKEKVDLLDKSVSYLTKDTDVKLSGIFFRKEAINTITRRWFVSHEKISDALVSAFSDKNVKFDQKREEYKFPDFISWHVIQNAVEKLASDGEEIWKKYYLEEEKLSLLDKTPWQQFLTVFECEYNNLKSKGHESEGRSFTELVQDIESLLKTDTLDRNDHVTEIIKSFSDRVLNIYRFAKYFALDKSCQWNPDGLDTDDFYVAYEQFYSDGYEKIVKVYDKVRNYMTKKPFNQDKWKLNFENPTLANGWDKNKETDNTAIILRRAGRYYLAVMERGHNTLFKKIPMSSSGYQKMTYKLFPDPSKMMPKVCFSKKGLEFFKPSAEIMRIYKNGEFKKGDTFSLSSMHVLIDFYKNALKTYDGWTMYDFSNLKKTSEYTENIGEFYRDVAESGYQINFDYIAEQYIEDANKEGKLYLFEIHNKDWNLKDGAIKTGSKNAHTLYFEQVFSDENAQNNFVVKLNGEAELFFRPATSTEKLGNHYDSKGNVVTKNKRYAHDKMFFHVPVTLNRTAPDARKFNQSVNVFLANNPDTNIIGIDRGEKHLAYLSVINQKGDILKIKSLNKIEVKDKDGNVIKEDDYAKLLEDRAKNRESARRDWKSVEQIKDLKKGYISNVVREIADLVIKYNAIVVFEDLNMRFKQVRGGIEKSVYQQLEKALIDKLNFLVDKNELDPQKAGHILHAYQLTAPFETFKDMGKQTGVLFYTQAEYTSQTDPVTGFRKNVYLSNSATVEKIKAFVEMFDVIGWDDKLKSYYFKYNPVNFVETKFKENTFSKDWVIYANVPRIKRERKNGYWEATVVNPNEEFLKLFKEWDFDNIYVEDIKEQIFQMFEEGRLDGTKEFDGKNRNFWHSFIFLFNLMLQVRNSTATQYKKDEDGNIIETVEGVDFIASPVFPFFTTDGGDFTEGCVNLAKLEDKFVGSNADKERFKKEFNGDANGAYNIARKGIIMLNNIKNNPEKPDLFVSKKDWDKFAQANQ
Assay: cell_activity; PAM not stated; E. coli depletion, 30 C
Method in brief: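 E. coli carrying arabinose-induced (0.2%) BMC nuclease, grown at 30° C., made electrocompetent and electroporated with 50-100 ng plasmid carrying gRNA against malQ. Transformants plated on selective M9-glucose agar with kanamycin/ampicillin (± nourseothricin), and growth scored after 48 h at 30° C.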

B1: malQ gRNA (BMC stem-loop + 24 nt spacer) ; malQ protospacer (ssRNA ; dsDNA)
RNA: GAUUUCUACUAUUGUAGAUGUGGCGGUACGUUGAUGCAUCGCG
DNA 1: GTGGCGGTACGTTGATGCATCGCG
DNA 2: CGCGATGCATCAACGTACCGCCAC
With B1 the activity was greater than 99.9 % colony reduction.
